Molecular target: IL-6R (UniProt P08887)
Test: cell-based or functional assay

Sequence of IL-6R (P08887 20-468 limits assumed): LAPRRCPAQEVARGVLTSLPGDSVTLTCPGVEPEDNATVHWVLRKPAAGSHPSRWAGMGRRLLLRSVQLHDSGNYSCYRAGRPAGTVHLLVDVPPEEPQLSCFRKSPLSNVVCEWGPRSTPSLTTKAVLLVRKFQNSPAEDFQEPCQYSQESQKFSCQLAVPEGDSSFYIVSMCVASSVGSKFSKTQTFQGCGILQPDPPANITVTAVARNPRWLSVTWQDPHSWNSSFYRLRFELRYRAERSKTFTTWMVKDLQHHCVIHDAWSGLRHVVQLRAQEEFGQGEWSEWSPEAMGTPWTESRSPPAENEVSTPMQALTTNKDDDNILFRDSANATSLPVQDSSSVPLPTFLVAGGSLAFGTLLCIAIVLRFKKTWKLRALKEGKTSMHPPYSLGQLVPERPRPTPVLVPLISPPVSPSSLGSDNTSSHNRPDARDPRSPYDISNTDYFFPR

Relative IL-6 Inhibition (%) of IL-6-dependent U266B1 cell proliferation, Tocilizumab at 1 µg/mL (6.7 × 10^-9 M): 15.1%
Relative IL-6 Inhibition (%) of IL-6-dependent U266B1 cell proliferation, Tocilizumab at 10 µg/mL (6.7 × 10^-8 M): 60.7%
Relative IL-6 Inhibition (%) of IL-6-dependent U266B1 cell proliferation, Tocilizumab at 100 µg/mL (6.7 × 10^-7 M): 57%
Substance: Tocilizumab (antibody)

Reference: patent publication US20140315986A1
